Assay results as given in IntAct's records for PubMed 34400613.

Tests used:
G3BP1 [1] = biological target: G3BP1 (UniProt Q13283)
G3BP1 [2] = biological target: G3BP1 (UniProt Q13283); remark: listed apart in the source

UniProt Q13283, sequence (Q13283 whole entry, looked up): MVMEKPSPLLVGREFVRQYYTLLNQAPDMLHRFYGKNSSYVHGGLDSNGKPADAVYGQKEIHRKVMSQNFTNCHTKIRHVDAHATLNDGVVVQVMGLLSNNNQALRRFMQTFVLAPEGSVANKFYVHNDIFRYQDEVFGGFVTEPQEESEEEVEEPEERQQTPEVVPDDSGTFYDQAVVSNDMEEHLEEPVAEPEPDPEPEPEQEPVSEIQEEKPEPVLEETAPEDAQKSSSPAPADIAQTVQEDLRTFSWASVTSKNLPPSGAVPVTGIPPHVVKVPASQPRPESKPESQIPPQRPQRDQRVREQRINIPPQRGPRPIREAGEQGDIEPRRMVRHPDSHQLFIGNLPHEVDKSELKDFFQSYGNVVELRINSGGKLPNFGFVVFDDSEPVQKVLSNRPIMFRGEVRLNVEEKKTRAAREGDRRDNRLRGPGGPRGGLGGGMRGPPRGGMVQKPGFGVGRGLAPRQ

“Nucleoprotein (SARS-CoV-2) (from UniProt P0DTC9) G18A” was tested, and the “effect of a mutation on the interaction” value (G3BP1 [1]) was “decreasing interaction strength”.
With “Nucleoprotein (SARS-CoV-2) (from UniProt P0DTC9) G18E” the “effect of a mutation on the interaction” value (G3BP1 [2]) was “decreasing interaction strength”.
In the case of “Nucleoprotein (SARS-CoV-2) (from UniProt P0DTC9) I15A”, the “effect of a mutation on the interaction” value (G3BP1 [2]) is reported as “decreasing interaction strength”.
“Nucleoprotein (SARS-CoV-2) (from UniProt P0DTC9) I15A;T16A;F17A;G18A” was tested, and the “effect of a mutation on the interaction” value (G3BP1 [1]) was “disrupting interaction strength”.
For “Nucleoprotein (SARS-CoV-2) (from UniProt P0DTC9) T16A”, the “effect of a mutation on the interaction” value (G3BP1 [2]) was “decreasing interaction strength”.
